According to publication PMC7525497, “Antibodies from Sierra Leonean and Nigerian Lassa fever survivors cross-react with recombinant proteins representing Lassa viruses of divergent lineages” (Scientific Reports, 2020):

Target: the molecule itself
Assay: SDS-PAGE and western blotting

B1: LASV Zinc protein (Z), lineage IV (natural protein)
chain: MGNKQAKAPESKDSPRASLIPDATHLGPQFCKSCWFENKGLVECNNHYLCLNCLTLLLSVSNRCPICKMPLPTKLRPSAAPTAPPTGAADSIRPPPYSP
notes: also called Z protein; lineage IV Z
B1: binds.
